Legend:
Assay in all cases: BLI
[1] = target: T1, monomeric human Fc-fused SARS-CoV-2_RBD-SD1 (SARS-CoV-2)
[2] = target: T1, monomeric human Fc-fused …; remark: listed apart in the source
[3] = target: T2, Mouse IgG1 Fc-fused SARS-CoV-2 RBD (SARS-CoV-2, UniProt P0DTC2)
[4] = target: T2, Mouse IgG1 Fc-fused SARS-CoV-2 RBD; remark: listed apart in the source

Row | Binder | Kd [1] [nM] | koff [2] [s⁻¹] | koff [3] [s⁻¹] | Kd [4] [nM]
1 | humVHH (VHH) VHH: EVQLVESGGGLVQPGGSLRLSCAASGRTFSEYAMGWFRQAPGKEREFVATISWSGGSTYYTDSVKGRFTISRDNAKNTVYLQMNSLRPEDTAVYYCAAAGLGTVVSEWDYDYDYWGQGTLVTVSS | 63 | 0.088 |  | 
2 | humVHH_S56A (VHH) VHH: EVQLVESGGGLVQPGGSLRLSCAASGRTFSEYAMGWFRQAPGKEREFVATISWSGGATYYTDSVKGRFTISRDNAKNTVYLQMNSLRPEDTAVYYCAAAGLGTVVSEWDYDYDYWGQGTLVTVSS | 8.3 | 0.023 |  | 
3 | humVHH_S56A/LALAPG-Fc (Fc fusion) EVQLVESGGGLVQPGGSLRLSCAASGRTFSEYAMGWFRQAPGKEREFVATISWSGGATYYTDSVKGRFTISRDNAKNTVYLQMNSLRPEDTAVYYCAAAGLGTVVSEWDYDYDYWGQGTLVTVSS |  |  | 8.16e-05 | 0.0477
